Results on two molecules are retold here after article PMC8955265 (2022).

In test [1] the target is T1, Skp1-FBXW7 complex (human, UniProt P63208 1-149; Q969H0 263-707). The experiment in a line: FP; direct titration.
Test [2] concerns the target T1, Skp1-FBXW7 complex. The test can be described thus: FP; competition, unlabeled peptide.

Where no end group is shown, it is not given here. [ ]: non-standard residue; d: D form. pT = C[C@@H](OP(=O)(O)O)[C@H](N)C(=O)O; pS = N[C@@H](COP(=O)(O)O)C(=O)O; CF = carboxyfluorescein

T1 sequence (P63208 1-149, chain 1 of 2): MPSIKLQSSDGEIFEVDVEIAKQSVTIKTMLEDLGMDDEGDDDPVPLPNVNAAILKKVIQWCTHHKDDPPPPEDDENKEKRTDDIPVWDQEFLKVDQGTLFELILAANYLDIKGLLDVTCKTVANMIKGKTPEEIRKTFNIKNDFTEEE
T1 sequence (Q969H0 263-707, chain 2 of 2): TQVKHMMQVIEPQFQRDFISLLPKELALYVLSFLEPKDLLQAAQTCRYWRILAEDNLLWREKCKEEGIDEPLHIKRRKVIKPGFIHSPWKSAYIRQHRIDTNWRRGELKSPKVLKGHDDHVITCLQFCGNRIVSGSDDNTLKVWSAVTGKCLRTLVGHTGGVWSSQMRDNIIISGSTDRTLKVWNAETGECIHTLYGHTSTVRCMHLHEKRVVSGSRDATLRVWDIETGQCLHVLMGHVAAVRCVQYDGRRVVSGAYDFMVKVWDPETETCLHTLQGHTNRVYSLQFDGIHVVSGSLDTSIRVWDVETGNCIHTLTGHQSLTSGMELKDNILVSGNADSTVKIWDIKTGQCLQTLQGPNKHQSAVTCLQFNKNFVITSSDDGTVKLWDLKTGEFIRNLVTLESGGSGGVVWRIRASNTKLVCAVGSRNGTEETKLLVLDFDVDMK

What is called Kd is the constant that tells how readily two partners part at equilibrium. High values mean weaker binding, low ones tighter binding. {CF}-PSGLL[pT]PPQ[pS]GKKQ [carboxyfluorescein (CF) labeled CCNE peptide (CF-PSGLLpTPPQpSGKKQ)] showed a dissociation constant (Kd) with Skp1-FBXW7 complex [1] of 2.8 nM. PSGLL[pT]PPQ[pS]GKKQ (also: N-terminal carboxyfluorescein on the labelled probe form) [CCNE] returned a Kd in the test with Skp1-FBXW7 complex [2] of 15.9 nM. That is a double-digit nanomolar value.
